These results are taken from US9029505B2, “Modified vasoactive intestinal peptides” (Phasebio Pharmaceuticals, Inc., priority 2009, dated 2015).

No end group written: not given here. ELP1‑120 = 120 ELP1 units (VPGXG) fused at the C-terminus

The target in series [1] is T1, human Vasoactive Intestinal Peptide Receptor 2 (VPAC2) (Homo sapiens, UniProt P41587).
T1 construct: expressed in transfected cells; host or cells: Chinese Hamster Ovary (CHO) cells
T1 sequence (P41587 24-438): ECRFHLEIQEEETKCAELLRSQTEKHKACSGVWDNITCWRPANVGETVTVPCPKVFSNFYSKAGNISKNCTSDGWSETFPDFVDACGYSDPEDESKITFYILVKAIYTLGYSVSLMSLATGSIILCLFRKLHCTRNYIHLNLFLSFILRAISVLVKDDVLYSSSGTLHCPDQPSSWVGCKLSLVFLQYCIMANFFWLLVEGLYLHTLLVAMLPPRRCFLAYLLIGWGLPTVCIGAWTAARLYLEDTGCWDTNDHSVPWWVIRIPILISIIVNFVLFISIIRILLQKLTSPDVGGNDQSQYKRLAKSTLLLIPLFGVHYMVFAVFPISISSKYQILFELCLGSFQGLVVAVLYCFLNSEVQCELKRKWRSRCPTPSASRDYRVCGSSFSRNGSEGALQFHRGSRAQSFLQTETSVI
The experiment in a line: cell-based cAMP bioassay in CHO cells expressing VPAC2. The settings on record: for activity compared with native VIP protein for VPAC2 receptor (cAMP produced): CHO cells expressing VPAC2, 30 minute incubation, FIG. 8, PB1047 DPP-IV treated before addition. The text has this:
(§1) To measure the in vitro biological activity and potency of VIP or VIP-ELP fusion proteins, a cell-based bioassay was used. The assay measures the increase in intracellular cyclic adenosine monophosphate (cAMP) concentration in response to treatment with VIP or VIP-ELP fusion proteins in Chinese Hamster Ovary (CHO) cells that have been engineered to express either the human Vasoactive Intestinal Peptide Receptor 2 (VPAC2) or the human Vasoactive Intestinal Peptide Receptor 1 (VPAC1). […] Since the amount of cAMP accumulation in cells after receptor-mediated ligand binding and activation is directly proportional to the amount of intact peptide or fusion protein present, the assay can be used to determine bioactivity and relative potency.
In this example, the activity of VIP-ELP fusion proteins PB1046 and PB1047 was tested. Construct PB1046 contains VIP with a Met at the N-terminus and construct PB1047 contains VIP with Ala-Ala at its N-terminus. Both constructs have ELP (1-120) at their C-terminus. In the first experiment, the activity of the constructs was tested using CHO cells expressing the VIP receptor VPAC2. After 30 minute incubations of various concentrations of the fusion proteins with the cell, the cells were lysed and the amount of cAMP produced was measured using a commercial kit. PB1047 was DPP-IV treated prior to the addition to the cells.
FIG. 13 illustrates the activity of PB1120 for the VPAC2 receptor. Like the results seen for the VPAC1 receptor, PB1120 show slightly less activity (˜1.5 fold less) than the native VIP peptide for VPAC2. However, in contrast to the results seen with VPAC1. PB1046 was equipotent for VPAC2 as compared to the native peptide.

For series [2], the target named is T2, human Vasoactive Intestinal Peptide Receptor 1 (VPAC1) (Homo sapiens, UniProt P32241).
T2 construct: expressed in transfected cells; host or cells: Chinese Hamster Ovary (CHO) cells
T2 sequence (P32241 31-457): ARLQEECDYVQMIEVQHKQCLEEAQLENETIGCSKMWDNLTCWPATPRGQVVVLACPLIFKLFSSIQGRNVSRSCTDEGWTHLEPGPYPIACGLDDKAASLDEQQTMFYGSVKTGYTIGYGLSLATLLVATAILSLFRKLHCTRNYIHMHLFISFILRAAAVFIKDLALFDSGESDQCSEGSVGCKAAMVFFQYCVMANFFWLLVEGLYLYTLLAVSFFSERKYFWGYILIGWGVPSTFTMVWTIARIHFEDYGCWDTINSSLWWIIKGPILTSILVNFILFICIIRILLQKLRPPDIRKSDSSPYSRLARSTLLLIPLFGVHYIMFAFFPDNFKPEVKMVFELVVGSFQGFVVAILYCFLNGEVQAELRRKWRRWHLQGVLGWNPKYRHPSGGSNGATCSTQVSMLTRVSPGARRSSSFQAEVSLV
The experiment in a line: cell-based cAMP bioassay in CHO cells expressing VPAC1. The settings on record: for activity compared with native VIP protein for VPAC1 receptor (cAMP produced): CHO cells expressing VPAC1, 30 minute incubation, FIG. 9, PB1047 DPP-IV treated before addition; for fold less active than the native VIP peptide on the VPAC1 receptor: FIG. 12.
Source text: as §1
The activity of PB1046 and PB1047 was also tested using CHO cells expressing the VIP receptor VPAC1. After 30 minute incubations of various concentrations of the fusion proteins with CHO cells, cells were lysed and the amount of cAMP produced was measured using a commercial kit. PB1047 was DPP-IV treated prior to the addition to the cells.
The activity of the PB1120 fusion peptide was tested in vitro. The activity was tested using an assay utilizing CHO cells expressing VIP receptor (VPAC1) as described above in Example 3.

Series [3] relates to Spontaneously hypertensive rats. The experiment in a line: blood pressure effect in spontaneously hypertensive rats. The settings on record: 10 mg/kg subcutaneous. In kind it is in vivo, rat. The procedure:
The activity of the modified VIP-ELP fusion protein PB1047 was also tested in vivo. Specifically, effects of VIP-ELP fusion protein on blood pressure were tested. Spontaneously hypertensive rats were treated subcutaneous with PB1047 (10 mg/kg) or buffer control and their blood pressures were measured at several points after administration of the fusion protein. Five animals were used for each group and the graphs show the average and the standard deviation.

In another series the target is DPP IV (Homo sapiens, UniProt P27487). The experiment in a line: DPP IV treatment of the fusion protein. The class given is biochemical. The settings on record: removal of both AA and HS from the N-terminus. The source says: Plasmid pPB1064 was therefore constructed, where the N-terminus was changed to MAAHG, SEQ ID NO: 45, instead of MAAHS, SEQ ID NO: 46, because HG is more resistant to DPP IV than HS.
Chain of DPP IV (P27487 whole entry, species assumed, the tested form may be a part): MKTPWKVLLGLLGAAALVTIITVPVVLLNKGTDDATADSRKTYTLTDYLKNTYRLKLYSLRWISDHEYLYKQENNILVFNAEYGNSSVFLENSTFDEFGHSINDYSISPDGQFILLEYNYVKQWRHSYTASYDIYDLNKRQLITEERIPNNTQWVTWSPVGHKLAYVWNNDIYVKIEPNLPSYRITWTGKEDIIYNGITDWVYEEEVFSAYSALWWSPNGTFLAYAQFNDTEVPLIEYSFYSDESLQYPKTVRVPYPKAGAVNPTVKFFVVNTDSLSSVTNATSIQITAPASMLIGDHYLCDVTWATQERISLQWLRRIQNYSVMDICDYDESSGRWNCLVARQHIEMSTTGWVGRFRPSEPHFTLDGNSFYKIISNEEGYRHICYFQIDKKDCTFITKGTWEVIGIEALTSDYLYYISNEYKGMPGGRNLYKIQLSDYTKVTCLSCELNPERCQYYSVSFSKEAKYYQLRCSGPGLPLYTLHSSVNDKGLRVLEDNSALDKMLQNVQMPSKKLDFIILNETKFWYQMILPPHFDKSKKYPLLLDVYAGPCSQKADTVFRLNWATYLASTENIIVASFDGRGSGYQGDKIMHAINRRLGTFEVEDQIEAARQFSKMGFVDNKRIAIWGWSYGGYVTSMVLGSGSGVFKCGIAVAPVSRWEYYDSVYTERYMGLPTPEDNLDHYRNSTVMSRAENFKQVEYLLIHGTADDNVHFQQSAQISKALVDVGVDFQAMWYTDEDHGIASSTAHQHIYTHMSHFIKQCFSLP

The conditions of series [4]: Domschke 1978, Burhol 1978; cited from earlier work.
Series [5] in a line: pharmacokinetic profile in monkeys after single SC injection. In kind it is in vivo, monkey. The settings on record: single SC 3 mg/kg, to day 4. The procedure:
In addition to the biological potency assays described above, the pharmacokinetic profile of the VIP-ELP fusion protein PB1120 was also examined. Monkeys were given single subcutaneous (SC) injections (dosed at 3 mg/kg) of PB1120 and plasma drug concentrations were measured daily over the course of one week. Three animals were used and the graphs show the average and the standard deviation.

The test system of the next series is rats. The experiment in a line: effects on systolic, diastolic and mean arterial blood pressure in rats. In kind it is in vivo, rat. The settings on record: 9 hrs post-injection. The procedure:
To measure the effects of the modified VIP-ELP fusion protein PB1120 on systolic, diastolic, and mean arterial blood pressure, rats were given single, subcutaneous injections of 0.1 mg/kg, 1 mg/kg, or 5 mg/kg of PB1120 and evaluated over 3-hr intervals. FIGS. 15A, 15B, and 15C show the average change in systolic, diastolic, and mean arterial pressure, respectively.

As to “PB1046: VIP-ELP fusion protein with Met at the N-terminus and ELP1-120 at the C-terminus (SEQ ID NO. 17; FIG. 1 SEQ ID NO: 14) (MHSDAVFTDNYTRLRKQMAVKKYLNSILN-{ELP1‑120}; also: recombinant VIP-ELP fusion)”, the “activity compared with native VIP protein for VPAC2 receptor (cAMP produced)” value in series [1] is “somewhat more active than native VIP protein”. Also, the “potency for VPAC2 compared to the native peptide” value in series [1] (FIG. 13) is “equipotent”. Besides, the “receptor selectivity VPAC2 over VPAC1” value in series [1] (comparison of FIG. 8 and FIG. 9) is “selectively activates VPAC2 receptor over VPAC1 receptor”. Further, in series [2], the “activity compared with native VIP protein for VPAC1 receptor (cAMP produced)” value is on record as “much less active than native VIP protein” and the “fold less active than the native VIP peptide on the VPAC1 receptor” value is “approximately 11 fold”.

“PB1047: VIP-ELP fusion with tripeptide MAA encoded at N-terminus (Ala-Ala after Met removal), ELP1-120 at C-terminus (SEQ ID 18) (MAAHSDAVFTDNYTRLRKQMAVKKYLNSILN-{ELP1‑120}; also: recombinant fusion with ELP1-120 at C-terminus)”: the “activity compared with native VIP protein for VPAC2 receptor (cAMP produced)” value in series [1] is given as “less active”. Moreover, the “activity compared with native VIP protein for VPAC1 receptor (cAMP produced)” value in series [2] is reported as “about the same as it was in the test for VPAC2 receptor”. Moreover, in series [3] (systolic and diastolic), the “duration of blood pressure reduction post administration” value is given as “at least 12 hours”. Further, in series [3] (vs buffer control, FIG. 10), the diastolic blood pressure entry was “significantly reduced” and the systolic blood pressure result is given as “significantly reduced”. The “effect of DPP IV treatment on the peptide” value in the series with DPP IV is given as “inactivation of the peptide”.

As to Vasoactive intestinal peptide [VIP], the half-life in blood entry in series [4] was “less than 2 minutes”.

B1: PB1120: VIP-ELP1-120 fusion peptide encoded by pPB1120 (protein)
chain: HSDAVFTDNYTRLRKQMAVKKYLNSILNVPGVGVPGVGVPGGGVPGAGVPGVGVPGVGVPGVGVPGGGVPGAGVPGGGVPGVGVPGVGVPGGGVPGAGVPGVGVPGVGVPGVGVPGGGVPGAGVPGGGVPGVGVPGVGVPGGGVPGAGVPGVGVPGVGVPGVGVPGGGVPGAGVPGGGVPGVGVPGVGVPGGGVPGAGVPGVGVPGVGVPGVGVPGGGVPGAGVPGGGVPGVGVPGVGVPGGGVPGAGVPGVGVPGVGVPGVGVPGGGVPGAGVPGGGVPGVGVPGVGVPGGGVPGAGVPGVGVPGVGVPGVGVPGGGVPGAGVPGGGVPGVGVPGVGVPGGGVPGAGVPGVGVPGVGVPGVGVPGGGVPGAGVPGGGVPGVGVPGVGVPGGGVPGAGVPGVGVPGVGVPGVGVPGGGVPGAGVPGGGVPGVGVPGVGVPGGGVPGAGVPGVGVPGVGVPGVGVPGGGVPGAGVPGGGVPGVGVPGVGVPGGGVPGAGVPGVGVPGVGVPGVGVPGGGVPGAGVPGGGVPGVGVPGVGVPGGGVPGAGVPGVGVPGVGVPGVGVPGGGVPGAGVPGGGVPGVGVPGVGVPGGGVPGAGVPGVGVPGVGVPGVGVPGGGVPGAGVPGGGVPGWP
modifications: VIP ELP1-120
notes: VIP-ELP1-120 fusion peptide encoded by pPB1120
Take B1: in series [1] (FIG. 13), the “fold less activity than the native VIP peptide for VPAC2” value is roughly 1.5 fold. Besides, in series [2], the “fold less active than the native VIP peptide on the VPAC1 receptor” value is “approximately 1.4 fold”. Moreover, the “portion of initial dose remaining in the circulation” value in series [5] is “More than half”. For the same molecule, in the series on rats (1 mg/kg SC), the diastolic pressure entry is recorded as “significant reductions”, the mean arterial pressure result is on record as “significant reductions” and the systolic pressure entry is on record as “significant reductions”. In the series with rats (5 mg/kg SC), the diastolic pressure result is given as “significant reductions”, the mean arterial pressure result is “significant reductions” and the systolic pressure result is given as “significant reductions”.
